Test results reported in patent CN111138528A (INST MILITARY MEDICINE ACADEMY MILITARY SCIENCES PLA, dated 2020).

Columns and labels:
RESTV GP = target: T1, RESTV GP (RESTV, UniProt Q66799 34-651); test: ELISA, GP coated at 1 μg/mL, 5A8 in 1:3 dilutions
T1 sequence: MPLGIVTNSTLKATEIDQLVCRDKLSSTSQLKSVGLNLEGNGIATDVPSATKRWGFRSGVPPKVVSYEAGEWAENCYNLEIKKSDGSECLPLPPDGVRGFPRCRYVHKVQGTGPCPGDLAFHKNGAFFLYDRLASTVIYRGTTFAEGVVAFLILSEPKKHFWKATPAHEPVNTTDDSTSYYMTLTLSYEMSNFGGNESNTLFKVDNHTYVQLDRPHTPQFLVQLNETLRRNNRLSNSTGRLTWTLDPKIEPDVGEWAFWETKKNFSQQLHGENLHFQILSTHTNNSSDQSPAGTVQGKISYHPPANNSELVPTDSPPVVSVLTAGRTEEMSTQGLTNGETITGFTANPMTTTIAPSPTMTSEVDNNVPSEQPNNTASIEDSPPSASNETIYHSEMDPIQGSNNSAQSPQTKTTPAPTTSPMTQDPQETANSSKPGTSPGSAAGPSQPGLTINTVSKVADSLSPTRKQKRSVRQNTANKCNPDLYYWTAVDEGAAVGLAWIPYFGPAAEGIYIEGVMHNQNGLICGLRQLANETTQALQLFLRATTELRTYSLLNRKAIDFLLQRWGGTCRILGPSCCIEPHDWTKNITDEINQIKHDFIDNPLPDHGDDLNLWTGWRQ

SUDV GP = target: T2, SUDV GP (SUDV, UniProt Q7T9D9 33-650); test: ELISA, GP coated at 1 μg/mL, 5A8 in 1:3 dilutions
T2 sequence: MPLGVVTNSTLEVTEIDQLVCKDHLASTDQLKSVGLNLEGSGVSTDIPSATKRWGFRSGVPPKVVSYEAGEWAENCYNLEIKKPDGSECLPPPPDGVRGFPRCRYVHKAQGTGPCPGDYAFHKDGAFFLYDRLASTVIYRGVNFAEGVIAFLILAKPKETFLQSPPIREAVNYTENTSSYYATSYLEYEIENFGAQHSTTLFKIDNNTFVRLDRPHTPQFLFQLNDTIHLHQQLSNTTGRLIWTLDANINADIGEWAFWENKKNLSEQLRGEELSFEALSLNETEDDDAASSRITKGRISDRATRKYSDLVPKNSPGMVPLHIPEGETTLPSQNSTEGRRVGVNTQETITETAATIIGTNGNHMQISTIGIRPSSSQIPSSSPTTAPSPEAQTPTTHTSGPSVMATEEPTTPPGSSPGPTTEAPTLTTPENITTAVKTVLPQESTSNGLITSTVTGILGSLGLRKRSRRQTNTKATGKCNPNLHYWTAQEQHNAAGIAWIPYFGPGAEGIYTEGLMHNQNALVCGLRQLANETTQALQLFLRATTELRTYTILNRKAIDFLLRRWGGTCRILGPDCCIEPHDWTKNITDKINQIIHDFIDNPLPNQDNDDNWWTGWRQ

EBOV GP = target: T3, EBOV GP (Ebola virus (EBOV), UniProt Q05320 33-650); test: ELISA, GP coated at 1 μg/mL, 5A8 from 10 μg/mL in 1:3 dilutions
T3 sequence: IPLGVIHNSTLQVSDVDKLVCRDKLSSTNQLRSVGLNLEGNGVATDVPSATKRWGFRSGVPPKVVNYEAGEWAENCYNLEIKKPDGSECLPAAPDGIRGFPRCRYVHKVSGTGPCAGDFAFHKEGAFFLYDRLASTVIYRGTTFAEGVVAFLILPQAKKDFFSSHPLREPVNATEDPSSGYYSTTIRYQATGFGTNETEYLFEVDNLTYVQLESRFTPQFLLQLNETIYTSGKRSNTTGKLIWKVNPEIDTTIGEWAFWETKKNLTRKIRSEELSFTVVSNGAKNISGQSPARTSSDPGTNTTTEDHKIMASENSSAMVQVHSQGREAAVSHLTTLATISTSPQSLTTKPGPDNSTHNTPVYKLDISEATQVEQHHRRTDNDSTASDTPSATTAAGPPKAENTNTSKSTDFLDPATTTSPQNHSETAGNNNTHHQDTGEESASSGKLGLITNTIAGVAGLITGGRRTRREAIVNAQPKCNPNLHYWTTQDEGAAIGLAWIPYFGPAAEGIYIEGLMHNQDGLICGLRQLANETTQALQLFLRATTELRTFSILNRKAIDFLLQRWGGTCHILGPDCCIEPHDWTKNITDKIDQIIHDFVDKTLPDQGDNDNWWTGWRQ

GP 158-295 = GP 158-295 (Ebola virus (EBOV), UniProt Q05320 158-295); test: ELISA, truncated GP coated, 5A8 titrated (method of Example 2)
GP 33-310;463-558 = GP 33-310;463-558 (Ebola virus (EBOV), UniProt Q05320 33-310; Q05320 463-558); test: as above
sGP = sGP (Ebola virus (EBOV), UniProt P60170 33-324); test: as above
GP 227-295 = GP 227-295 (Ebola virus (EBOV), UniProt Q05320 227-295); test: as above
GP 95-295 = GP 95-295 (Ebola virus (EBOV), UniProt Q05320 95-295); test: as above
GP1 = GP1 (Ebola virus (EBOV), UniProt Q05320 33-501); test: as above

B1: 单克隆抗体5A8 (antibody, V domains shown)
VH: EVQLLESGGGLVKPGGSLRLSCAASGFTFSDYYMNWIRQAPGKGLEWVSYISSSGKTIYYADSVKGRFTISRDNAKKSLYLQMNSLRAEDTAVYYCARDREIVISTTILLGSDHYAMDVWGQGTTVTVSS
VL: DIQMTQSPFTLSASVGDRVTITCRASQSINSYLNWYQQKPGKAPKLLIYSASSLQSGVPSRFSGSGSGTDFTLTISSLQPEDFAIYYCQQTYRTPYTFGQGTKVEIKT
Does B1 bind (RESTV GP)?
Result: no binding (tested: 10μg/mL (highest concentration tested))

Does B1 bind (SUDV GP)?
Result: no binding (tested: 10μg/mL (highest concentration tested))

What about the EC50 (EBOV GP) of the same binder?
The EC50 was 14 ng/mL.

And the EC50 (GP 158-295)?
The EC50 was 20 ng/mL.

And the EC50 (GP 33-310;463-558)?
Its EC50 is 4.9 ng/mL.

And the EC50 (sGP)?
The EC50 was 7.5 ng/mL.

And the EC50 (GP 227-295)?
Its EC50 is 12.6 ng/mL.

What about the EC50 (GP 95-295) of the same binder?
The EC50 was 7.1 ng/mL.

And the EC50 (GP1)?
Its EC50 is 6.9 ng/mL.
